The data set deals with the molecule itself. As to the kind of experiment: sucrose velocity gradient sedimentation.

B1: AOX with the COOH-terminal LARF replaced by RSC (AOX–RSC, pHWO41) (enzyme, P. pastoris)
chain: MAIPEEFDILVLGGGSSGSCIAGRLANLDHSLKVGLIEAGENNLNNPWVYLPGIYPRNMKLDSKTASFYTSNPSPHLNGRRAIVPCANVLGGGSSINFMMYTRGSASDYDDFQAEGWKTKDLLPLMKKTETYQRACNNPDIHGFEGPIKVSFGNYTYPVCQDFLRASESQGIPYVDDLEDLVTAHGAEHWLKWINRDTGRRSDSAHAFVHSTMRNHDNLYLICNTKVDKIIVEDGRAAAVRTVPSKPLNPKKPSHKIYRARKQIVLSCGTISSPLVLQRSGFGDPIKLRAAGVKPLVNLPGVGRNFQDHYCFFSPYRIKPQYESFDDFVRGDAEIQKRVFDQWYANGTGPLATNGIEAGVKIRPTPEELSQMDESFQEGYREYFEDKPDKPVMHYSIIAGFFGDHTKIPPGKYMTMFHFLEYPFSRGSIHITSPDPYAAPDFDPGFMNDERDMAPMVWAYKKSRETARRMDHFAGEVTSHHPLFPYSSEARALEMDLETSNAYGGPLNLSAGLAHGSWTQPLKKPTAKNEGHVTSNQVELHPDIEYDEEDDKAIENYIREHTETTWHCLGTCSIGPREGSKIVKWGGVLDHRSNVYGVKGLKVGDLSVCPDNVGCNTYTTALLIGEKTATLVGEDLGYSGEALDMTVPQFKLGTYEKTGRSC
Turning to B1, the stoichiometry N (in general, the number of molecules, sites or subunits per partner or assembly) worked out at 8.

B2: wild-type alcohol oxidase of Pichia pastoris (AOX-WT) (enzyme, P. pastoris, UniProt F2QY27 1-663, looked up)
chain: MAIPEEFDILVLGGGSSGSCIAGRLANLDHSLKVGLIEAGENNLNNPWVYLPGIYPRNMKLDSKTASFYTSNPSPHLNGRRAIVPCANVLGGGSSINFMMYTRGSASDYDDFQAEGWKTKDLLPLMKKTETYQRACNNPDIHGFEGPIKVSFGNYTYPVCQDFLRASESQGIPYVDDLEDLVTAHGAEHWLKWINRDTGRRSDSAHAFVHSTMRNHDNLYLICNTKVDKIIVEDGRAAAVRTVPSKPLNPKKPSHKIYRARKQIVLSCGTISSPLVLQRSGFGDPIKLRAAGVKPLVNLPGVGRNFQDHYCFFSPYRIKPQYESFDDFVRGDAEIQKRVFDQWYANGTGPLATNGIEAGVKIRPTPEELSQMDESFQEGYREYFEDKPDKPVMHYSIIAGFFGDHTKIPPGKYMTMFHFLEYPFSRGSIHITSPDPYAAPDFDPGFMNDERDMAPMVWAYKKSRETARRMDHFAGEVTSHHPLFPYSSEARALEMDLETSNAYGGPLNLSAGLAHGSWTQPLKKPTAKNEGHVTSNQVELHPDIEYDEEDDKAIENYIREHTETTWHCLGTCSIGPREGSKIVKWGGVLDHRSNVYGVKGLKVGDLSVCPDNVGCNTYTTALLIGEKTATLVGEDLGYSGEALDMTVPQFKLGTYEKTGLARF
Regarding B2, the “stoichiometry N” value worked out at 8.

The values above are taken from article PMC2132610 (The Journal of Cell Biology, 1997).
